The source of these data is patent publication US20130150294A1.

The target in experiment [1] is EYFP-rat α1 (rat) (UniProt P06685). The experiment is described as follows: FRET by acceptor photobleaching, 16 LLC-PK1 cells in six experiments.
Experiment [2] has as its target EYFP-rat α1 mutant (D371E) (rat) (UniProt P06685). The experiment is described as follows: FRET by acceptor photobleaching, 20 TCN23-19 cells in three experiments.

On to Src-ECFP, for which the results for the FRET efficiency in experiment [1] and in experiment [2] were 8.1 to 18.8 and 10.4 to 15.6, respectively. Besides, the FRET efficiency (mean) in experiment [1] and in experiment [2] was 13.2 in each case.
